In article PMC3675495:

Target: Su(Hw) (Drosophila (endogenous in embryo nuclear extract)) (UniProt P08970)
Test: co-IP

Chain of UniProt P08970 (P08970 whole entry): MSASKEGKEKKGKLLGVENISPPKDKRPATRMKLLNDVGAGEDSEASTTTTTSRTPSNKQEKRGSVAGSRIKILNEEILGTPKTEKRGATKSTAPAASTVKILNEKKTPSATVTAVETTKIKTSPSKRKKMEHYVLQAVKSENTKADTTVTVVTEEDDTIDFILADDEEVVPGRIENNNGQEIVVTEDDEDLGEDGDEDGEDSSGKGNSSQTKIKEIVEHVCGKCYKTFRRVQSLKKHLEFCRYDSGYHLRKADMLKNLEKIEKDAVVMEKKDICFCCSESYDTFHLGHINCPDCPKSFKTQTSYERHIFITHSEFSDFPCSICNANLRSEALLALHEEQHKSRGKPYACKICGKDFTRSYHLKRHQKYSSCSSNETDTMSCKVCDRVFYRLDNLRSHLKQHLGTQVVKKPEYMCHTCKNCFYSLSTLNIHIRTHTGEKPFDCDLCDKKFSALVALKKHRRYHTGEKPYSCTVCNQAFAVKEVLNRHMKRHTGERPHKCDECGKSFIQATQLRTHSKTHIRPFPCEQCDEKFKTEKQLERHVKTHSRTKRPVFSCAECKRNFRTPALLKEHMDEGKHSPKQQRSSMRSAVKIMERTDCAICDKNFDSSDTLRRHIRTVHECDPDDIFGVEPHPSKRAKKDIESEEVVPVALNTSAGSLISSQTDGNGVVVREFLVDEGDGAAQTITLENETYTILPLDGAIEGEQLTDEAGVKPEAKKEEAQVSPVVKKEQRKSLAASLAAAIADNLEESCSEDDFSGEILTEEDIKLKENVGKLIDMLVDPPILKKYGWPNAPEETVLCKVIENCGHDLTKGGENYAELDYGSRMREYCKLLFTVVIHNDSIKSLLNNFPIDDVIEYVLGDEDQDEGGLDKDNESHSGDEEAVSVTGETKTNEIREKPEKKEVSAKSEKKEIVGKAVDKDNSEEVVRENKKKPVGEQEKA

OSA, Q8IN94 1-2716
percent co-precipitated: 0.5%
